Test [1] deals with feline immunodeficiency virus (FIV) Gag, Villefranche strain, expressed by ALVAC recombinants (vCP21 (feline immunodeficiency virus, Villefranche strain)). In words: sandwich kinetic ELISA, plate coated with pooled FIV env-specific MAb 2 ug/well (mismatched capture control), gag lysate 0.2 ug/well, control rabbit serum 1:100. (In an ELISA, binding on a coated surface is turned into a signal by an enzyme label.)

Test [2] shares this target. In words: sandwich kinetic ELISA, plate coated with pooled FIV gag-specific MAb 2 ug/well, gag lysate 5 ug/well, control rabbit serum 1:100.
The target is the same in test [3]. In words: sandwich kinetic ELISA, plate coated with pooled FIV gag-specific MAb 2 ug/well, gag lysate 0.2 ug/well, control rabbit serum 1:100.
Test [4] has the same target. In words: sandwich kinetic ELISA, plate coated with pooled FIV gag-specific MAb 2 ug/well, gag lysate 1 ug/well, control rabbit serum 1:100.
Test [5] shares this target. In words: sandwich kinetic ELISA, plate coated with pooled FIV env-specific MAb 2 ug/well (mismatched capture control), gag lysate 1 ug/well, control rabbit serum 1:100.
Test [6] shares this target. In words: sandwich kinetic ELISA, plate coated with pooled FIV env-specific MAb 2 ug/well (mismatched capture control), gag lysate 5 ug/well, control rabbit serum 1:100.

Take Rabbit A039 prebleed serum: the KELISA (mOD/min) in test [1] came out at 0.9 mOD/min; in test [2] it was 1 mOD/min; in test [3] it was 1.3 mOD/min; in test [4] it was 1.2 mOD/min; in test [5], 0.8 mOD/min; in test [6] it was 1 mOD/min.

(Values after patent publication US7255862.)
